Measurements published in patent US10407469B2, “Programmable polypeptide and nucleic acid nanoparticles” (Northwestern University, priority 2016, dated 2019).

Tests used:
siRNA [1] = experiment: Nanoparticle self-assembly upon siRNA binding (DLS, cryo-TEM); format: physicochemical
Description: (§1) FIGS. 1A-I. Nanoparticles of an engineered polypeptide carrying siRNA (A) C-terminus RNA binding motif CT-dsRBD (in yellow) excised from a canonical double stranded RNA binding domain (dsRBD) and fused to a self-assembly enhancer […] in order to obtain the engineered RNA binding polypeptide (P4) (B) electrophoresis gels of proteins binding siRNA (left). Plot of the bound siRNA (right). (C) Structural change of P4 and CT-dsRBD upon binding to siRNA determined by circular dichroism. (D) Increase in hydrodynamic size of P4 upon siRNA binding determined by DLS. (E) siRNA-P4 nanoparticles in solution imaged by cryo-TEM. Scale bar is 200 nm. […] (H) Salt stability of P4 nanoparticles. (I) Formation of siRNA-P4 nanoparticles in different buffers.
(§2) FIGS. 2A-J. Programmable protein for bioactive siRNA delivery nanoparticles. (A) P4 is functionalized with bioactive peptides, P4-RGD & P4-His6. […] (E) Ellipticity change in function of siRNA concentration (bottom scale) and P4-to-siRNA stoichiometry (top scale). (F) Hydrodynamic size and (G) Zeta potential of P4 nanoparticles. (H & I) Cryo-TEM and (j) AFM micrographs of siRNA-P4 nanoparticles.

siRNA [2] = experiment: siRNA binding, electrophoresis gels; settings: compared with P4
Description: as §1, §2

siRNA [3] = experiment: Structural change upon siRNA binding, circular dichroism; format: physicochemical
Description: as §1, §2

Row | Substance | self-assembly into nanoparticles upon binding to nucleic acid (siRNA [1]) | hydrodynamic size upon siRNA binding (siRNA [1]; determined by DLS) | binding to siRNA / nucleic acid cargo (siRNA [2]) | Structural change triggered by siRNA binding (siRNA [3])
1 | P4: engineered RNA binding polypeptide: CT-dsRBD RNA binding motif fused to a self-assembly enhancer helix (SIRKLEYEIEELRLRIGGGTFVETGSGTSKQVAKRVAAEKLLTKFKT) | self-assembles into nanoparticles upon binding to siRNA | Increase | – | –
2 | P4-RGD: P4 functionalized with bioactive peptide RGD (CRGDCSIRKLEYEIEELRLRIGGGTFVETGSGTSKQVAKRVAAEKLLTKFKT) | – | – | bind to siRNA similarly as P4 | triggered by siRNA binding as in P4
3 | P4-His6: P4 functionalized with bioactive peptide His6 (HHHHHHSIRKLEYEIEELRLRIGGGTFVETGSGTSKQVAKRVAAEKLLTKFKT) | – | – | bind to siRNA similarly as P4 | triggered by siRNA binding as in P4
